Measured values from publication PMC7835374 (Nature Communications, 2021).

Target: recombinant full-length hemagglutinin H6 (A/Taiwan/2/2013) (Influenza A virus A/Taiwan/2/2013 (H6N1), strain)
Assay: BLI
Conditions: both partners purified

B1: 3I14 IgG1 (wild type) (antibody, V domains shown)
VH: QVQLLESGGGVVQPGRSLRLSCAASGFTFSNYGMHWVRQAPGKGLEWVAIISFDGSKKYYANSVKGRSTISRDNSKNTLSLQMNSLGPEDTALYYCAKLPSPYYFDSRFVWVAASAFHFWGQGILVTVSS
VL: NFMLTQPPSASGTPGQRVTISCSGSSSNIGGNTVHWFQQLPGTAPKLLIYTNSLRPSGVPDRFSGSKSGTSASLAISGLQSEDEADYYCAAWDDSLNGQVFGGGTKLTVL
notes: copies: 2 + 2
Kd: 2.9 nM | koff: 0.000152 s⁻¹ | kon: 51900 M⁻¹ s⁻¹
